experiment: soluble on expression in E. coli; label from the status in PepcDB or PDB records

| Sequence | soluble on expression in E. coli |
| --- | --- |
| MGSDKIHHHHHHMYSTTQHQSPETVVTVSSLGKAYKIYNSKRDRAKQLIFQNRRKYFQEHWALRNISFDLRRGESIGIVGKNGSGKSTLLQLICGTLKPSQGEVIVNGKIAALLELGSGFNPEFSGRENVYLNASILGLNKQEIQERLDDILAFADIGNYVDQPVRTYSSGMVVRLAFSVIAHVDADILIVDEALSVGDAYFTQKCMRFIQRFQEKGSLLFVSHDANAILSLCNRALLINQGELKRVGKPKEVIEDYTRDLQKRNLADQNNKINRPERMKEQENTAHMKRQSGVQYTQKNIENEIMKWSDYRCKLINSSNLANTIVITRFDETLTTRETYGGEKAEITNVELENIETNKTIQNIKGGEIVRLRLKFEARTAIGRPIIGFILKNSKGLTILGDNTNNSISENNDFNAFEGDKVTTDFVFTVPMLQQGEYMISVSVADGCITEHEILHWMNDALLLRSQCTSIAAGLAGVPMHSISIEIEK | not soluble |
| KLVIAIVQDKDANYLSDQFIDQNVRATKLSTTGGFLQSGNTTFMIGIEEERVPEVLEIIKKASHTREEFMTPSVNMDVNMEGTTAYPIKVQVGGATVLVLPVDQFERF | not soluble |
| MGLSATIMEAEPEGRKRPGSRAIYFHKATLIHLESIFPGLGYTLAKNGLVWPIKRTFFRGKEVFVKDYGPTDPNQLPPFTSLPQDRAEQFMFDACLQAGVEFVWKTPIRQVETSPAGATLTTKAGDVWSADYVIGADGARSSVRTTAGMKLEGPRTNDTFLVVDVKEDEESPLPLERVFHYEHPAMGGRNVMFVPFVGGWRVDLQLLEHDDPEEYSHPEGVRRWIQKVMPAKYGERVTWVSTYRFHQVVADSFTDQHGKVLLAGEAAHLFAPFGARGLNSGTPDAIKAAQGIHTALSARDDQAAKQAIFAAAHERRIAALWNRDCSSTALEHLQGLEHHHHHH | not soluble |
| MCMPTKKYTEKFKISLVYLYRKGTSKQTLEDFGVSSASLSRWIKWYDVTDVDLNEAANILQMYELKKQKDKLEAEVLELTKAIQLFNSDLNTVLEHHHHHH | soluble |
| MSTPFGLDLGNNNSVLAVARNRGIDIVVNEVSNRSTPSVVGFGPKNRYLGETGKNKQTSNIKNTVANLKRIIGLDYHHPDFEQESKHFTSKLVELDDKKTGAEVRFAGEKHVFSATQLAAMFIDKVKDTVKQDTKANITDVCIAVPPWYTEEQRYNIADAARIAGLNPVRIVNDVTAAGVSYGIFKTDLPEGEEKPRIVAFVDIGHSSYTCSIMAFKKGQLKVLGTACDKHFGGRDFDLAITEHFADEFKTKYKIDIRENPKAYNRILTAAEKLKKVLSANTNAPFSVESVMNDVDVSSQLSREELEELVKPLLERVTEPVTKALAQAKLSAEEVDFVEIIGGTTRIPTLKQSISEAFGKPLSTTLNQDEAIAKGAAFICAIHSPTLRVRPFKFEDIHPYSVSYSWDKQVEDEDHMEVFPAGSSFPSTKLITLNRTGDFSMAASYTDITQLPPNTPEQIANWEITGVQLPEGQDSVPVKLKLRCDPSGLHTIEEAYTIEDIEAGSDTKTVKKDDLTIVAHTFGLDAKKLNELIEKENEMLAQDKLVAETEDRKNTLEEYIYTLRGKLEEEYAPFASDAEKTKLQGMLNKAEEWLYDEGFDSIKAKYIAKYEELASLGNIIRGRYLAKEEEKKQAIRSKQEASQMAAMAEKLAAQRKAEAEKKEEKKDTEGDVDMD | soluble |
| MNSAKKEFEISHIFTDVSKLENGNFLLSPEEDHFNVPWDLQLYREDDHLDVYLRCTKLTENDEICAIDTEFELTLKTSNGKQMSRRVKVDFTLENIMIPAWRWSKVVSWETLLKEYLIDDSIIVEAAVMIKAMTGIPRMKLRSFEKSAQEYSDAIIAIGDEKFYVLKKFLAAHSTYFKDLLFGDFDFEQAENSEITLSDINSTDFQCLLEVLYGEPAIDEENIDGILKLAQKYNMPLRFGDVKSS | not soluble |
| MDVPADSHIKYEDAIDYWTDVDATVDGVLGGYGEGTVVPTMDVLGSNNFLRKLKSRMLPQENNVKYAVDIGAGIGRVSKTMLHKHAAKIDLVEPVKPFIEQMHVELAELKDKGQIGQIYEVGMQDWTPDAGKYWLIWCQWCVGHLPDAELVAFLKRCIVGLQPNGTIVVKENNTPTDTDDFDETDSSVTRSDAKFRQIFEEAGLKLIASERQRGLPRELYPVRMYALKPMPN | soluble |
| MRGVVFLHAFPYSPRMWEGEVALLKTRLPVLAPHYLGLSLGKAAEKVLGEMDEAGLEQAVFVGLSMGGYLVFELFRKAPERFLGTVLSSTRAGPDSEEAKRNRYALRERVLKDGVGFLPEALLPSHLGRTTQATKPEVVEKVRAIILEASPEAVAETLVALAERPDSTPLLSRMQVPALVLVGEEDTLTPPEEARRMWKALPDARMLILPETGHLANLENPKAFRTALLGFLAEFF | soluble |
| MELNAVKSSYARWAPIYDKTFGAITNVGRHAAVDYINAHDATELLEVGVGTGLSLPNYRPGLKVTGIDFSEEMLAKARAKVESLGLGHVQSLRQMDARDLDFADASFDVVAAMHIISVVPEPERVMAEMARVCKPGGLIVITNHFARDSGMLARVERFAAPFANLLGWHPDFEISSVLKQPLEHHHHHH | not soluble |
| MSEPASVPRGAAPGSRGTASPRAVVIGAGLAGMLAAAALHRHAEVTVVDRDVLPAEPAPRKGLPQARHAHLLWSGGARAMEDLLPGVTAAWLAAGARRIPLPTGLVSLSAQGWLRRWPEMEFMISCTRDLLDSVIREQVAKKEGVTLLAGTELLGLEGGALRVTGVRVRTPEGEERVLEADLVVDASGRGSRSVAWLDALGVPQAPMDEVDSGLAYASRIFRAPAGTEDFPVVNVQPDPAQPVPAQSATIVPVEGGRWLVTLSGTHGGQPTASAEEFEAFARGVRDPVVGELIAHAEPLTNVVLTRSTINRRRFFEKVKDWPEGFVAIGDAVATYNPVYGHGMSVAAQGAVALREHVAEHGLAAPGLARRAQRAVALPVKIAWELATGTDIRYPEAIGKQPGGTQKLLGRYVERLMRTATGRPLVAQAFLGVITLSRPLSTLVKPEVLFAVLRGPRRSPLAGPPLTPEERKAVLTAKEPSGTQAAGLEHHHHHH | not soluble |
| MIPDQRRELMLRQLRKHQVLSVHQLMEMFDCSHMTIRRDIAQLEQEGRAYSVTGGVRIASQVHSEPSHQSKAVVELPHKQGMARLAAGLLHPDMTIYLDAGTSTLEIVPHIIALSGMTVVTNDFGVVNALADAAHVDVIHTGGLLDHPNRSSVGGLAAATLRQLATDVAFMSTSSWDLQRGTTTPSALKVEVKQAAMQSASQTVLVATSSKYGTFGMYKVAGLDQFDTIISDAALAEAAADGIRKQRIELLLAPVGGRSKLEHHHHHH | not soluble |
| MGSDKIHHHHHHMETVNILGTGSAMVTKCYNTCFTLSNGDEHFLVDTGGGNTILTNLEKLHIGIDKIHNVFISHRHNDHITGIIWIIRAVAQRIINGKYDGDLKIYCCKENIEVINTICKLLLEKKFTKYMGNRIVFSEIYDGCRLKVLDWDIEFFDIKSTKQLQFGFTTVLKSGKKLTFLGDEPYRENLYEYANNSDYIFHEAFCLYSEKDIFKPYEKHHATVKDACENADKLSVKNIILYHTEDKNIEKRKELYIGEGSKFFKGNIIVPDDLETIELK | not soluble |
| MGSDKIHHHHHHMSVSIIDRLQAIFQDVRVSEFMNPDVIYVTPDKTLLHVKEIMRIKRISGVPVVDDKKRVVGIVSLEDIIKALEGSYIKDSVEKRMTKNVVCLKETDTLQDAVKTFEKYGYGRFPVVDDEGKLVGIVTKHDIIYFLLAKLGIMYLHDKRMEEVLEKGTSLITGEVLEKGKADFVFHIDYFDVNMIGIGASKLKRFLLERGVDEELARRIAIATYEAEANVVIHSESDGYIYCFIDNEKITVRVEDRGKGIENLELAMREGYSTAPDHIRELGFGAGMGLPNMKRYSDKMVIISEVGKGVIVEMVFFRRDRGEDKGDSGKTGA | not soluble |
| FNDWYVSARANFTYNRNKKLYDDKPTPIWPYQSEAGFAYRQQRGLIALGLFESEEDIANSPKQNFGNVRPGDIKYKDINGDNVIDAYDKVAIGYTDVPEINYGFGISLGWKGFDASLFMQGVGNVTRIIGGDALYGASDNIERLGQIYADVAEKRWTTSNPNPNATYPRLSMSKVENNLQPSTYWQRNMSFLRLKNVEIGYTLPKHIYKRLGMSSIRVYAQGVNLLTFSKFKLWDPELDSNYGNIYPQMRTITLGLNLNF | not soluble |
| MSVEAEKAVLGTFLECPYLLKETVLTETHFSDPKHRKLFAAMKRIAQQGDEPDIVTLSTTEDVADFGGLSYLNEVSAFANETKFDQYEALVLDEWKEREKRRILVVAAQENWDIDKITTALTRLNEGRITDHHDISDLLHEVAEAPWTPTERKMGAPSGISELDKMLNGFNDGDSIILAARPSMGKTDFMIHFAKSVGWHGYLPIVFSLEMAADKIRDRLIGSIGGFNRMKLRNPYHDLSEEQKRMWIEVIGKASETRMQIFDGAGQSIADIRSKIRKAINRFPDRKPVVFIDYLTLIRPERYYGGNMHLQVTEISRAIKETAKEFSCPIITLAQLSRDVEKRSDKRPLMSDIRESGSIEQDADVVIFLYRDSYYNADADPRVAEVIVAKSRNGAVGTVRVSYNRNTGVIQDLYRP | not soluble |
| MGSDKIHHHHHHMNELRNDLLRYLTISATDEEWGIVVTTVGYQFIPPGCAYPLSRHPEKYNFKPQTGRILNEYQLVYITKGSGYFSSQSCKSQKINAGTMILLFPGEWHSYYPDRETGWDEYWVGFRGIHIDKRVEKKFFTKEEPLHRIGLSATIVGLYEDILKFASEEKSGYQQMISSIVLHILGSVYYKEKNNSFTNTYVVDKINEARILMKENIEDPLSPEEIAARLGLGYSWFRRMFKEYTGVSPAQYQLQQKLLRAKELLTSTPLTISEIAYSLHFENAGQFSTFFKKKEGVTPSEFRDRTH | not soluble |
| MGSDKIHHHHHHNTPREVTLHFLRTAGHPLTRWALQRQPPSPKQLEEEFLKIPSNFVSPEDLDIPGHASKDRYKTILPNPQSRVCLGRAQSQEDGDYINANYIRGYDGKEKVYIATQGPMPNTVSDFWEMVWQEEVSLIVMLTQLREGKEKCVHYWPTEEETYGPFQIRIQDMKECPEYTVRQLTIQYQEERRSVKHILFSAWPDHQTPESAGPLLRLVAEVEESPETAAHPGPIVVHCSAGIGRTGCFIATRIGCQQLKARGEVDILGIVCQLRLDRGGMIQTAEQYQFLHHTLALYAGQLPEEPSP | not soluble |
| MGSSHHHHHHSAGENLYFQGQQGDLMPQSALFTGIIPPVSTIFTADGQLDKPGTAALIDDLIKAGVDGLFFLGSGGEFSQLGAEERKAIARFAIDHVDRRVPVLIGTGGTNARETIELSQHAQQAGADGIVVINPYYWKVSEANLIRYFEQVADSVTLPVMLYNFPALTGQDLTPALVKTLADSRSNIIGIKDTIDSVAHLRSMIHTVKGAHPHFTVLCGYDDHLFNTLLLGGDGAISASGNFAPQVSVNLLKAWRDGDVAKAAGYHQTLLQIPQMYQLDTPFVNVIKEAIVLCGRPVSTHVLPPASPLDEPRKAQLKTLLQQLKLCCGRTRAPPPPPLRSGC | soluble |
| TLVRVKKSAATLGIAIEGGANTRQPLPRIVTIQRGGSAHNCGQLKVGHVILEVNGLTLRGKEHREAARIIAEAFKTKDRDYIDFLVTEFN | soluble |
| MLKPKEINTENKSKKRIYLSSPHMSDEGYEKQYINEAFETNWIAPLGKNVDEFEKELAAKVGIKAAAALSSGTAAIHMALKAAGVGEGDIVFCPTLTFAATANPIIYQNAIPVFIDSDYETWNMSPEALEEAFKKYPKVKAVLVVHLYGLSADMDKIVEICKKHDVQLIEDAAESLGTTYKGRYTGTIGDYGIYSFNGNKIITTSGGGMLVSDNEERIAKVRFWATQARDNARHYQHSELGYNYRMSNVIAGIGRGQLKVLDQRIEKKRYIFDFYKRELGCIDEIDFMPVNDWNKPNCWLTCITLTGKVRPLDVIIRLEEENIESRPVWKPMHMQPFYQHYDYIGSNVSEKIFENGVCLPSDTKMTDEDLYRVVNIIKGLWK | not soluble |
